{"source": "patent US20090136450A1", "about": "“THERAPY FOR NEUROLOGICAL DISEASES” (priority 2005, published 2009)", "molecules": {"B1": {"name": "mIFNβ: mIFNβ (Serono Pharmaceutical Research Institute, Geneva), interferon beta given to EAE mice (protein, UniProt P01575 22-182, looked up)", "Interferon beta": "INYKQLQLQERTNIRKCQELLEQLNGKINLTYRADFKIPMEMTEKMQKSYTAFAIQEMLQNVFLVFRNNFSSTGWNETIVVRLLDELHQQTVFLKTVLEEKQEERLTWEMSSTALHLKSYYWRVQRYLKLMKYNSYAWMVVRAEIFRNFLIIRRLTRNFQN"}}, "tested_on": "Experimental Autoimmune Encephalomyelitis (EAE)", "experiment": "chronic EAE model in C57BY6 mice, clinical score", "assay_type": "in vivo", "conditions": "chronic EAE in C57BY6 mice (MOG/CFA + B. pertussis toxin); subcutaneous daily treatment, 20,000 U/mouse, started at onset of the disease, 28 to 30 days", "description": "The most widely used animal model for multiple sclerosis is Experimental Autoimmune Encephalomyelitis (EAE), based on shared histopathological and clinical features with the human disease:\nThe chronic EAE model in C57BY6 mice shares some common traits with the primary progressive (PP) or secondary progressive (SP) forms of MS. Mice are immunized in both flanks at day 0 and day 7 with 200 μg s.c. of myelin oligodendrocyte glycoprotein (MOG) in Complete Freund's Adjuvant (CFA) and followed by two injections (on day 0 and day 2) with 500 ng i.p. of B. pertussis toxin.\nGroups are composed of 10 to 13 EAE mice. Clinical scores, overall health status, body weight and mortality are recorded daily. Starting from day 7 the animals are individually examined for the presence of paralysis by means of a clinical score: 0=no sign of disease, 1=tail paralysis, 2=tail paralysis+hindlimb weakness or partial hindlimb paralysis, 3=tail paralysis+complete hindlimb paralysis, 4=tail paralysis+hindlimb paralysis+weakness or partial paralysis of forelimbs, 5=moribund or dead.\nStarting from day 10-12, most animals are becoming increasingly paralysed.\nTherapeutic treatments are started at the onset of the disease, thus once the disease is already established but still progressing and continued for 28 to 30 days. […]"}
{"molecule": "B1", "values": [{"measurement": "clinical output (severity of the disease, paralysis clinical score)", "result": "significantly reducing the severity of the disease from complete hindlimb to partial hindlimb paralysis"}]}
